Data published in the RNAGym collection of RNA variant scans (doi:10.7554/elife.80360).

B1: HDV Ribozyme (parent)
chain: GGCCGGCAUGGUCCCAGCCUCCUCGCUGGCGCCGGCUGGGCAACAUUCCGAGGGGACCGUCCCCUCGGUAAUGGCGAAUGGGACCCA

Variants of: B1
Test: self-cleavage, relative activity (ratio to wild type); higher = more cleavage; co-transcriptional

Variant	self-cleavage
G40U G81C	0.149
G40U A43G	0.54
C41A C49U	0.91
G40U C85G	0.612
C41U C48U	1.02
G40C A43U	0.0639
A42G C75A	0.0554
G40C G81U	0.162
A42C C62A	0.365
G40A G53U	0.823
G40C C44G	0.106
G40C C44A	0.0468
G40C C44U	0.0627
C41U U65C	0.954
C41U U65G	0.976
A42C G81C	0.0978
G40A C85A	0.859
G39U G68A	0.841
G39U G68U	0.56
C41A G55A	0.937
C41G C44A	0.192
C41G C64G	0.536
G40U A71C	0.327
A42C C84U	0.224

Variant	self-cleavage
A42C C84G	0
A42C G54A	0.271
C41A A71C	0.499
C41A A43G	0.808
G39C A87U	0.229
C41G G82A	0.0811
G40C A56G	0.237
G40C A56C	0.197
G40U A45C	0.295
G39U G80C	0.181
G39U G40U	0.451
G39U A43G	0.0811
G39U G73U	0.211
C41G G54C	0.849
G39U A83G	0.444
G39U C62G	0.408
G39U C62A	0.623
A42C U69C	0.399
A42C U69G	0.246
G40A A77C	0.427
G39C U69G	0.133
G40A A42U	0.802
G40U A87U	0.667
G39C U65G	0.262

Variant	self-cleavage
G39C U65C	0.374
G40U C41A	0.843
G40U G73U	0.424
C41U A71C	0.644
C41U A71G	1.06
A42G A51G	0.571
C41U C63A	0.983
C41U G55U	1
C41G A70G	0.929
C41G A70C	0.475
G39U G81U	0.185
G39U G81C	0.119
C41G C63A	0.791
G40A A87C	0.981
C41U G54A	0.958
G40U A83U	0.0936
A42G C44U	0.639
C41U U79A	0.98
C41U U79G	0.369
C41G U69C	0.772
C41G U69A	0.609
G39U C85G	0.69
G40A C49A	0.95
G40A C49U	0.95

Variant	self-cleavage
G39U A77G	0.564
G39U A77C	0.233
G39U C66G	0.831
G39U C66A	0.739
G40A C75A	0.0831
G40A C75G	0.305
G39A U47C	0.208
A42C A56C	0.356
A42C A56U	0.332
G40C G59C	0.229
G39U A71U	0.431
G40U A42G	0.306
A42C C57A	0.373
C41G C57G	0.804
G40U C44G	0.194
C41A U69A	0.831
C41A A77C	0.172
C41A A77U	0.332
C41A A77G	0.628
C41G G53A	0.485
C41U A70G	0.876
C41U C75G	0.208
G40C A51G	0.288
G39C G76A	0.289

Variant	self-cleavage
G40A G54A	1.04
A42C G73A	0.245
G40U U47A	0.427
G39A U72C	0.135
C41U G76U	0.897
C41U G76C	0.861
G40U U65A	0.808
G40U G55U	0.621
C41U U46G	1.02
G39A G67A	0.453
G39A G81C	0.113
C41G G59U	0.969
C41A G81C	0.169
G39U G82U	0.155
G40A C61A	0.839
G40A C61U	0.765
A42C G76U	0.734
G39C A70G	0.151
G39C A70U	0.0308
C41G U46G	0.231
G40U U79G	0.243
G40U U79C	0.185
G39U G76U	0.819
G40U G52C	0.891

Variant	self-cleavage
G40U G52A	0.513
C41G U72G	0.795
G39U C64U	0.597
G39U C64G	0.845
G40C U47C	0.243
G39A G40U	0.57
G39A G40C	0.459
G39U A56G	0.659
A42C C85A	0.18
C41U C84U	0.765
G40A A56U	1.02
G40C G76A	0.163
C41A C57U	0.909
A42G A78G	0
G40C G74A	0.0978
C41U C57G	1.09
C41A C61U	0.76
A42C G52C	0.359
G39U C44G	0.113
C41A G76C	1.06
C41A U65G	0.95
G39U U47C	0.393
C41A G54C	1.08
C41A G54A	1.01

Variant	self-cleavage
G39C C62G	0.0573
A42G C48U	0.525
G40A C58G	1.02
G39C C58U	0.0923
G39C C58A	0.521
A42G C64A	0.302
A42G C64G	0.332
G40U A77C	0.145
G40U A77U	0.212
G40C A78G	0.318
G40C A78U	0.122
G40A C64U	0.925
G40U U69G	0.727
A42G A77U	0
C41U C62U	0.92
C41A C63U	1.04
C41A C63G	0.623
G40A C57A	1.18
C41G A42G	0.332
C41G A42C	0.353
C41G G55C	0.723
G39A G55A	0.683
G39A G55U	0.356
